Results taken from patent publication US20230212239A1, “INHIBITORS OF CBL AUTOINHIBITION AND RELATED METHODS” (THE HOSPITAL FOR SICK CHILDREN, priority 2020, published 2023).
Entries after “also recorded” stand apart in the source; their conditions may differ.

Experiments:
[1] = molecular target: T1, phosphorylated CBL (pCBL) (Homo sapiens, UniProt P22681); experiment: In vitro ubiquitination assay, anti-ubiquitin immunoblot, phosphorylated CBL; assay type: biochemical; conditions: added to phosphorylated CBL
T1 construct: GST (N, cleaved yes); made in house
T1 sequence (P22681 2-436): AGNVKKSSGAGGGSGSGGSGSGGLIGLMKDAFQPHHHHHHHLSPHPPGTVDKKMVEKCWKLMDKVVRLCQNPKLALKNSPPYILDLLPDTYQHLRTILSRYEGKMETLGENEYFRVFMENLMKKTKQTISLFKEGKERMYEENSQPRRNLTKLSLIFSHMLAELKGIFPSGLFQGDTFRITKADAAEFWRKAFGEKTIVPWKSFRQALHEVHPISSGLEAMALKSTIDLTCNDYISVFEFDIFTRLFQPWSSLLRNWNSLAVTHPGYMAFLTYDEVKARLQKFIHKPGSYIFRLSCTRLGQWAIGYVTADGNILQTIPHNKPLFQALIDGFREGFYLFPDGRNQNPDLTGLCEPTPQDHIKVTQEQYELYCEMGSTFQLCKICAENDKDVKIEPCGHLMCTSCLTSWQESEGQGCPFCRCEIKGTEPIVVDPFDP
Excerpt: (§1) Given that binding of SLAP2 and the LHR-RING would be mutually exclusive (FIG. 8C), we reasoned that binding of SLAP2 to CBL could displace the LHR-RING, thereby promoting the catalytically competent conformation. To test this hypothesis, an in vitro ubiquitination assay in which E3 ligase activity is detected by a smear at high molecular weight on an anti-ubiquitin (Ub) immunoblot was employed. […] To further compare and quantify CBL ubiquitin ligase activity, a chemiluminescence based assay which measures the total amount of polyubiquitylated products formed in an in vitro reaction was used. In this assay, production of polyubiquitylated proteins increased upon addition of SLAP2 or pSLAP2 to CBL, compared to CBL alone (FIG. 9C and FIG. 10A).
In vitro ubiquitination reactions were prepared with 20 pmol of CBL or pCBL and 60 pmol of hSLAP2 or phosphorylated hSLAP2 (pSLAP2) for both WT and mutants. Reagents were thawed and reactions prepared on ice. […]

CBL TKBD-LHR-RING = molecular target: T2, CBL TKBD-LHR-RING (Homo sapiens, UniProt P22681); experiment: Chemiluminescence based E3LITE assay of total polyubiquitylated products; assay type: biochemical; conditions: added to CBL, compared to CBL alone
T2 construct: GST (N, cleaved yes); made in house; host or cells: E. coli BL-21
T2 sequence (P22681 2-436): T1 sequence (P22681 2-436)
Excerpt: as §1
Ubiquitination reactions were set up as above (25 µL total volume) in triplicate and diluted with reaction buffer after completion (1:40 for pCBL, 1:15 for all other reactions). […] Wells were washed four times with PBS-T and 25 µL of prepared Immobilon Western Chemiluminescent HRP Substrate (Millipore #P90719) added to each well immediately prior to the plate being read on a Synergy Neo2 Plate Reader (BioTek Instruments). […] Standard deviation of the reaction averages was calculated and used as a measure of error. Each reaction set was analyzed at least twice with fresh protein purifications.

B1: pSLAP2: tyrosine phosphorylated SLAP2 expressed in TKB1 cells (protein, UniProt Q9H6Q3 2-261, looked up)
Src-like-adapter 2: GSLPSRRKSLPSPSLSSSVQGQGPVTMEAERSKATAVALGSFPAGGPAELSLRLGEPLTIVSEDGDWWTVLSEVSGREYNIPSVHVAKVSHGWLYEGLSREKAEELLLLPGNPGGAFLIRESQTRRGSYSLSVRLSRPASWDRIRHYRIHCLDNGWLYISPRLTFPSLQALVDHYSELADDICCLLKEPCVLQRAGPLPGKDIPLPVTVQRTPLNWKELDSSLLFSEAATGEESLLSEGLRESLSFYISLNDEAVSLDDA
modifications: tyrosine phosphorylated
notes: tyrosine phosphorylated SLAP2 expressed in TKB1 cells
[1]
  ubiquitination activity of active pCBL: Neither addition of SLAP2 nor pSLAP2 to active pCBL appeared to further enhance or diminish ubiquitination activity
CBL TKBD-LHR-RING
  production of polyubiquitylated proteins / CBL ligase activity: increased; also recorded: stimulated CBL ligase activity to a greater extent than SLAP2

B2: Trx-His(6)-Δlinker-hSLAP2 (human SLAP2 29-261) (other)
chain: EAERSKATAVALGSFPAGGPAELSLRLGEPLTIVSEDGDWWTVLSEVSGREYNIPSVHVAKVSHGWLYEGLSREKAEELLLLPGNPGGAFLIRESQTRRGSYSLSVRLSRPASWDRIRHYRIHCLDNGWLYISPRLTFPSLQALVDHYSELADDICCLLKEPCVLQRAGPLPGKDIPLPVTVQRTPLNWKELDSSLLFSEAATGEESLLSEGLRESLSFYISLNDEAVSLDDA
notes: also called Trx-His-SLAP2; SLAP2 WT; not shown: N-terminal thioredoxin (Trx)-His(6)-TEV-site tag and linker of the modified pET32a (Δlinker version)
[1]
  ubiquitination activity of active pCBL: Neither addition of SLAP2 nor pSLAP2 to active pCBL appeared to further enhance or diminish ubiquitination activity
CBL TKBD-LHR-RING
  production of polyubiquitylated proteins / CBL ligase activity: increased
